Test results: the supplement of paper PMC6757056
± gives the standard deviation of the averaged measurements.

B1: library; a variant is named by its letters at N, in order (parent)
chain: GCUGUCACCGGUGCUUGGUACGUUAUAUUCAGCCGGUCUGAUGAGUCUNNNNNNAGACGAAACAGC

Assays:
[1] = variants of: B1; assay: normalized RNA/DNA level without ligand (relative to sTRSVctl = 100) (log10 (% of sTRSVctl)); HEK293T overexpressing SLC46A1; higher = less ribozyme self-cleavage, higher mRNA level; conditions: without (6R,S)-folinic acid; ligand present: no
Method in brief: (§1)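 Total RNA, extracted with EDTA 72 h after HEK293T cells were transfected with 4 µg per 6-well well of reporter-linked ribozyme switch library plasmids, was reverse-transcribed, amplified, barcoded and sequenced. Ligand, if used, was added 1 h before transfection. RNA level was derived from RNA reads divided by DNA reads and normalized to a spiked-in non-cleaving sequence or to the top sequences. This was multiplied by 100 and log10-transformed, with the top set of 25 sequences and a ≥100 DNA read minimum.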

[2] = variants of: B1; assay: normalized RNA/DNA level with ligand (relative to sTRSVctl = 100) (log10 (% of sTRSVctl)); HEK293T overexpressing SLC46A1; ligand concentration (+) RNA-Seq: 6 mM; higher = less ribozyme self-cleavage, higher mRNA level; conditions: with (6R,S)-folinic acid; ligand present: yes
Method in brief: as §1

Variant | normalized RNA/DNA level without ligand (log10) [1] | normalized RNA/DNA level with ligand (log10) [2]
AGCGUG | 1.92 ± 0.023 | 2.02 ± 0.03
AGCGUU | 2 ± 0.021 | 2.015 ± 0.0096
AGCGUC | 2.083 ± 0.0033 | 2.06 ± 0.037
UGCUAC | 2.021 ± 0.0079 | 2.02 ± 0.071
UGCUAU | 1.994 ± 0.0055 | 2.05 ± 0.03
AGGCAG | 1.965 ± 0.0036 | 1.99 ± 0.053
GGGAAC | 1.997 ± 0.015 | 2.02 ± 0.032
GGGAAA | 1.99 ± 0.0091 | 2.02 ± 0.036
GGGAAU | 2.008 ± 0.0024 | 2.019 ± 0.02
AGGGUU | 2.021 ± 0.0045 | 2.01 ± 0.035
AGGGUC | 2.051 ± 0.0057 | 2.03 ± 0.063
AGGGUA | 1.968 ± 0.019 | 2.02 ± 0.0085
AGGGUG | 1.952 ± 0.0024 | 2.04 ± 0.028
UGCUGC | 2.038 ± 0.018 | 2.01 ± 0.049
UGCUGU | 2.015 ± 0.0082 | 1.995 ± 0.0073
GGGGAC | 1.995 ± 0.013 | 2.029 ± 0.012
GGGGAG | 1.9915 ± 0.00084 | 2.04 ± 0.043
GGGGAU | 2.002 ± 0.0074 | 2.03 ± 0.05
CGGUGC | 2.053 ± 0.0063 | 2.007 ± 0.0042
CGGUGA | 2.029 ± 0.014 | 2.04 ± 0.043
CGCUUA | 2.002 ± 0.011 | 2.014 ± 0.019
CGCUUC | 2.1105 ± 0.0021 | 2.09 ± 0.066
CGCUUG | 2.066 ± 0.018 | 2.041 ± 0.015
UGCGUC | 2.09 ± 0.0072 | 2.04 ± 0.044
UGCGUU | 1.972 ± 0.018 | 2 ± 0.051
UGGCCU | 2.043 ± 0.014 | 2.03 ± 0.024
UGGCCC | 2.059 ± 0.0063 | 2.06 ± 0.068
UGGCCG | 2.01 ± 0.036 | 2.03 ± 0.046
AGGAAG | 1.89 ± 0.0078 | 2.01 ± 0.043
